Values of other authors as cited in publication PMC11211486.

What was measured:
MepM (Escherichia coli) = MepM (Escherichia coli) (UniProt P0AFS9)
PBP4 (Escherichia coli) = PBP4 (Escherichia coli) (UniProt P24228)
MepS (Escherichia coli) = MepS (Escherichia coli) (UniProt P0AFV4)

Measured: Kd

NlpI, sequence (C4ZSQ4 19-294): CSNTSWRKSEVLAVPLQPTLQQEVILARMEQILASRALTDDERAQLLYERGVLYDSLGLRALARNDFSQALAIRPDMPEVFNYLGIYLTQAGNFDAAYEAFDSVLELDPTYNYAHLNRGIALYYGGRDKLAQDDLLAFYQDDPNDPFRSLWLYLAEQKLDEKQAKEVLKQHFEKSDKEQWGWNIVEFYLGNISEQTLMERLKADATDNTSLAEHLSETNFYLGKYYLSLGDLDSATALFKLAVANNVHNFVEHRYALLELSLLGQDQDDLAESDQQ
MepM (Escherichia coli), sequence (P0AFS9 whole entry): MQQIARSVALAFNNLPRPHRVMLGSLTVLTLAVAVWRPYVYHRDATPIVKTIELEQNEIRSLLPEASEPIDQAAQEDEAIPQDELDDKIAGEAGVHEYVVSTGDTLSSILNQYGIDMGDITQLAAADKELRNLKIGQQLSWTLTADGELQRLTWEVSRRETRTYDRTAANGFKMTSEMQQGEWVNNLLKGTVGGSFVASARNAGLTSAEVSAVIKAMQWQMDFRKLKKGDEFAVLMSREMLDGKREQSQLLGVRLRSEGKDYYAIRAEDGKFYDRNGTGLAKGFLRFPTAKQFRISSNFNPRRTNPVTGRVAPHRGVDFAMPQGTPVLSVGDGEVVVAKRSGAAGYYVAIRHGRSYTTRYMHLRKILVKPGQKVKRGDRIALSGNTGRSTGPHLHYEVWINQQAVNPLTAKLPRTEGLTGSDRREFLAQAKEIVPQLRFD
MepS (Escherichia coli), sequence (P0AFV4 27-188): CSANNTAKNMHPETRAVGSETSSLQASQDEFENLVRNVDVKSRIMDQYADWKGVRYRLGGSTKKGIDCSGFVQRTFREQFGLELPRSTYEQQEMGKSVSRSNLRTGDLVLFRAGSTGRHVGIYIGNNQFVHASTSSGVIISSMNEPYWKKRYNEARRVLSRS
PBP4 (Escherichia coli), sequence (P24228 21-477): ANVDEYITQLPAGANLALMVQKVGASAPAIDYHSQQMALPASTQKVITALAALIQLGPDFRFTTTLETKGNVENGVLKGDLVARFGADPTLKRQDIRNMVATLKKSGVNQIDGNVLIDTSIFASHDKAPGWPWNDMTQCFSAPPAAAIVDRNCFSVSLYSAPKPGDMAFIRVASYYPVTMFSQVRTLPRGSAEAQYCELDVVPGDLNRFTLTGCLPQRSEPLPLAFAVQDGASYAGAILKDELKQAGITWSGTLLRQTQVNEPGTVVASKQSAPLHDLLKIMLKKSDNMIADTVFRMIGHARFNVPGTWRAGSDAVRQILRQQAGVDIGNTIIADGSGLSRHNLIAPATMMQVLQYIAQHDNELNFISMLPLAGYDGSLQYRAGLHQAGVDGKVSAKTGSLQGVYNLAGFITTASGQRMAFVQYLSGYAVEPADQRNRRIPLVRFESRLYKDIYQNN

NlpI (from UniProt C4ZSQ4)
150 nM: MepM (Escherichia coli) | PBP4 (Escherichia coli) | MepS (Escherichia coli)
